Measured values reported in patent publication US20190376133.

Test system: T1, Pol6-67-X2 (Clostridium phage phiCPV4)
T1 sequence: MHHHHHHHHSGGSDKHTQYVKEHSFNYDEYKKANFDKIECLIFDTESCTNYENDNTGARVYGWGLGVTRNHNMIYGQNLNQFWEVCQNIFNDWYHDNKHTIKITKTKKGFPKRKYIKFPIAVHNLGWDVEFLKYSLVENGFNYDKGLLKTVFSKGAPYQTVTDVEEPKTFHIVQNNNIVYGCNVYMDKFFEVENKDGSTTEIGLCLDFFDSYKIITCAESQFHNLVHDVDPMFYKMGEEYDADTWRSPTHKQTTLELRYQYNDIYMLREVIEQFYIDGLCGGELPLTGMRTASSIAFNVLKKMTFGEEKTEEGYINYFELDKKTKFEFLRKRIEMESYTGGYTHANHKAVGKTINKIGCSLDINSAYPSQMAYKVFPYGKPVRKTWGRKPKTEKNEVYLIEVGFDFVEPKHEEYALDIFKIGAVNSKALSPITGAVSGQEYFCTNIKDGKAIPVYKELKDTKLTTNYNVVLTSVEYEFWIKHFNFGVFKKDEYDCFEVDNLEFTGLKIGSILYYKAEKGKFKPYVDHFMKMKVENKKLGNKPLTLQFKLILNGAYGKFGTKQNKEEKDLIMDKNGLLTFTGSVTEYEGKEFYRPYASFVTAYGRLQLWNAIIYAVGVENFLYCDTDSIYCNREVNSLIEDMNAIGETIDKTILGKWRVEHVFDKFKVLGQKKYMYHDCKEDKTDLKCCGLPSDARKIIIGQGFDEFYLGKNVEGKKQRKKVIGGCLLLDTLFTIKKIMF
Settings: 5'-desthiobiotin-TEG; iSpC3 spacer between SEQ 15 and SEQ 22; 8x polymerase (26% at 1x); bound at 40 C with 1.2 uM polyphosphate nucleotides; extension 5 min at 30 C with 5 mM MgCl2, 10 uM nucleotides; % bound correlates …

With “ACTGCTGATCTGTTCCTGAATCGACTACTACTATCATCATACCACCTCAGCTGCACGTTAAGTGCAGCTGAGGTGG [Fluorescent Hairpin DNA template]” as the sequence, how does the activity read?
The activity was 66 % extension.
